# Experimental data taken from US20190062422A1 (MorphoSys, published 2019).
# Substitutions are numbered along the chain they refer to.
# T1: mouse IL17C (mouse, UniProt Q8K4C5 17-194, limits assumed, biotinylated in the receptor interaction, inhibition and serum stability assays (sites not given))
# T1 construct: Bought recombinant protein; About 22 kDa reduced and about 40 kDa non-reduced on SDS-PAGE; Used plain (coated, ELISA) or biotinylated; also called biotinylated mouse IL17C; biotin-IL17C
# T1 sequence (looked up): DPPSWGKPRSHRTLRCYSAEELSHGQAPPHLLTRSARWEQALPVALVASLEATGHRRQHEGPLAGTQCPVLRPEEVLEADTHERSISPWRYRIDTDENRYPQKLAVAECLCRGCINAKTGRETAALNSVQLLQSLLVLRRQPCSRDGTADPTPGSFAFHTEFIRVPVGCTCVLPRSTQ
# T2: mouse IL-17B (mouse, UniProt Q9QXT6 23-180, limits assumed)
# T2 sequence (looked up): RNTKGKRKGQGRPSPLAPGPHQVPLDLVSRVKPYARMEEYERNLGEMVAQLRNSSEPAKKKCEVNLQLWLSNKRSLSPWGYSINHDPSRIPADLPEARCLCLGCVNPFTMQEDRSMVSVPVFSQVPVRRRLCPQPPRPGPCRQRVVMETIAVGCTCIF
# T3: human IL17C (human, UniProt Q9P0M4 19-197)
# T3 sequence: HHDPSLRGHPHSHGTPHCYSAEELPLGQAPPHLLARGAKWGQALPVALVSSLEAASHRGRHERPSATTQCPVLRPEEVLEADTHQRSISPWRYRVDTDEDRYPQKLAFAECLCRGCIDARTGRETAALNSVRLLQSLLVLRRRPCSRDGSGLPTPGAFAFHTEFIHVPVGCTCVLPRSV
# B1: MOR12743 (antibody, V domains shown)
# VH: QVQLVQSGAEVKKPGASVKVSCKASGYTFTSNFIHWVRQAPGQGLEWMGWISPYNGDTNYAQKFQGRVTMTRDTSISTAYMELSRLRSEDTAVYYCARESVYYGSDYGYNGMDIWGQGTLVTVSS
# VL: DIELTQPPSVSVSPGQTASITCSGDNLGEEYVSWYQQKPGQAPVLVIYDDTKRPSGIPERFSGSNSGNTATLTISGTQAEDEADYYCASWDLWSVEVFGGGTKLTVLG
# notes: Tested as human-mouse chimeric IgG2a (human variable, mouse constant regions); Potential N-linked glycosylation sites were removed by site-directed mutagenesis; also called MOR12743_h/m; MOR1243
# B2: MOR12759 (antibody, V domains shown)
# VH: EVQLVQSGAEVKKPGESLKISCKGSGYSFNNYWIAWVRQMPGKGLEWMGFIYPSNSATQYSPSFQGQVTISADKSISTAYLQWSSLKASDTAMYYCARDNEYSDSYFDVWGQGTLVTVSS
# VL: DIVLTQSPATLSLSPGERATLSCRASQIVSSYLAWYQQKPGQAPRLLIYDASSRATGIPARFSGSGSGTDFTLTISSLEPEDFAVYYCQQSVNFPTTFGQGTKVEIKR
# notes: Tested as human-mouse chimeric IgG2a (human variable, mouse constant regions); Potential N-linked glycosylation sites were removed by site-directed mutagenesis
# B3: MOR12760 (antibody, V domains shown)
# VH: B2 VH
# VL: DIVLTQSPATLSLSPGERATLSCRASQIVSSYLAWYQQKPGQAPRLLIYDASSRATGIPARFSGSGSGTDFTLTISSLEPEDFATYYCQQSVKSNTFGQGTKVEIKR
# notes: as for B2
# B4: MOR12762 (antibody, V domains shown)
# VH: B2 VH
# VL: B2 VL with V92E, N93Q, F94V
# notes: as for B2
# B5: MOR12761 (antibody, V domains shown)
# VH: B2 VH
# VL: B2 VL with V85T, V92N, N93G, F94W, P95L, T96P
# notes: as for B2
# B6: MOR12751 (antibody, V domains shown)
# VH: QVQLQQSGPGLVKPSQTLSLTCAISGDSVSSNSAAWNWIRQSPSRGLEWLGVIYYRSKWYINYADSVKSRITINPDTSKNQFSLQLNSVTPEDTAVYYCAREGIVGGWFAYWGQGTLVTVSS
# VL: DIELTQPPSVSVSPGQTASITCSGDKLGSKIAHWYQQKPGQAPVLVIYDDNERPSGIPERFSGSNSGNTATLTISGTQAEDEADYYCQSWDYLSWSVVFGGGTKLTVL
# notes: as for B2
# B7: MOR12741 (antibody, V domains shown)
# VH: QVQLVQSGAEVKKPGSSVKVSCKASGGTFSSYAISWVRQAPGQGLEWMGMIMPEVGMADYAQKFQGRVTITADESTSTAYMELSSLRSEDTAVYYCARDFIAVGSLEIWHYYYGLDVWGQGTLVTVSS
# VL: DIELTQPPSVSVSPGQTASITCSGDNIGEHYASWYQQKPGQAPVLVISYDNERPSGIPERFSGSNSGNTATLTISGTQAEDEADYYCQSWTSQKPDYVFGGGTKLTVLG
# notes: as for B2
# B8: MOR12740 (antibody, V domains shown)
# VH: QVQLVQSGAEVKKPGSSVKVSCKASGGTFSIYAISWVRQAPGQGLEWMGGIIPILGIANYAQKFQGRVTITADESTSTAYMELSSLRSEDTAVYYCARDATHSYYHDYWGQGTLVTVSS
# VL: DIALTQPASVSGSPGQSITISCTGTSSDVGSYETVSWYQQHPGKAPKVMIYEVSDRPSGVSNRFSGSKSGNTASLTISGLQAEDEADYYCGSFAHWGSWVFGGGTKLTVLG
# notes: as for B2
# B9: MOR12757 (antibody, V domains shown)
# VH: EVQLLESGGGLVQPGGSLRLSCAASGFTFSSYAMSWVRQAPGKGLEWVSFISSGGSETFYADSVKGRFTISRDNSKNTLYLQMNSLRAEDTAVYYCARVSYIYYYSWVLFDVWGQGTLVTVSS
# VL: DIQMTQSPSSLSASVGDRVTITCRASQGIGTALNWYQQKPGKAPKLLIYDVSSLQSGVPSRFSGSGSGTDFTLTISSLQPEDFATYYCQQGLFLPFTFGQGTKVEIKR
# notes: as for B2
# B10: MOR12755 (antibody, V domains shown)
# VH: QVQLQQSGPGLVKPSQTLSLTCAISGDSVSSNSAAWNWIRQSPSRGLEWLGKTYYRSTWSNDYAESVKSRITINPDTSKNQFSLQLNSVTPEDTAVYYCAREMDSLTRSASSIAFDYWGQGTLVTVSS
# VL: DIELTQPPSVSVSPGQTASITCSGDNLREHYVHWYQQKPGQAPVLVIYDDTERPSGIPERFSGSNSGNTATLTISGTQAEDEADYYCATRDWSNVVFGGGTKLTVLG
# notes: as for B2
# B11: MOR12756 (antibody, V domains shown)
# VH: QVQLQQSGPGLVKPSQTLSLTCAISGDSVSDNSVAWNWIRQSPSRGLEWLGRIYYRSKWYNDYAVSVKSRITINPDTSKNQFSLQLNSVTPEDTAVYYCAREVLLFPARSYGTGMDVWGQGTLVTVSS
# VL: DIELTQPPSVSVSPGQTASITCSGDNLPSKYVHWYQQKPGQAPVLVIYDDNERPSGIPERFSGSNSGNTATLTISGTQAEDEADYYCGVADMPRQMKVFGGGTKLTVLG
# notes: as for B2
# B12: MOR12758 (antibody, V domains shown)
# VH: EVQLVQSGAEVKKPGESLKISCKGSGYSFTDYWISWVRQMPGKGLEWMGAIDPTDSYTRYSPSFQGQVTISADKSISTAYLQWSSLKASDTAMYYCARWYTSHPYYEGRYPMDVWGQGTLVTVSS
# VL: DIALTQPASVSGSPGQSITISCTGTSSDVGHYNYVSWYQQHPGKAPKLMIYGVTKRPSGVSNRFSGSKSGNTASLTISGLQAEDEADYYCASADEWPTLHVFGGGTKLTVLG
# notes: as for B2
# Target: T1, mouse IL17C
# Test: ELISA on biotin-IL17C captured on avidin: chimeric IgG2a incubated 24 h at 37°C in mouse serum against freshly diluted IgG2a
# Protocol: 96 well Maxisorp plates (Nunc; #442404) were coated with avidin at a concentration of 1 μg/ml in PBS overnight at 4° C. The next day, anti-IL17 chimeric IgG2a were incubated in mouse serum for 24 h at 37° C. at a final concentration 100 μg/mL. After the incubation step the antibodies were diluted 1:100 in LowCross buffer (Candor Bioscience; #100500). As a reference the same set of antibodies were freshly diluted in LowCross buffer+1% mouse serum and incubated for 30 min at RT. Avidin coated plates were incubated with blocking buffer (Superblock blocking buffer from Pierce, #37515) and subsequently 100 μL of 0.1 μg/mL biotin-IL17C in LowCross buffer was added to blocked wells. After a washing step a serial dilution of the serum-incubated and freshly diluted IgGs was added. Binding of IgGs was detected by anti-mouse-IgG2a POD conjugated detection antibody (diluted 1:5000 in LowCross buffer) using TMB One Component HRP as substrate. The reaction was stopped by adding 1M HCl and absorbance was measured at 450 nm.
row,Binder,Coefficient of variation (Mouse Serum Stability Assay 24h/37°C) [%]
1,B1,2.88
2,B2,8.8
3,B3,35.3
4,B4,2.43
5,B5,1.23
6,B6,3.75
7,B7,13

# Target: T2, mouse IL-17B
# Test: ELISA, purified chimeric human/mouse IgG2a on msIL-17B
row,Binder,binding result
1,B1,no binding
2,B2,no binding
3,B3,no binding
4,B4,no binding
5,B5,no binding
6,B6,no binding
7,B7,no binding
8,B8,no binding

# Target: T1, mouse IL17C
# Test: solution equilibrium titration (SET), ECL based, monovalent Fab fragment (Fab_FH format)
# Protocol: Monovalent affinities of anti-IL17C antibodies were determined by solution equilibrium titration (SET) using Fab fragments. Affinity determination in solution was basically performed as described in the literature (Friquet et al., (1985) J. Immunol. Meth. 77: 305-19). In order to improve the sensitivity and accuracy of the SET method, it was transferred from classical ELISA to ECL based technology (Haenel et al. (2005) Anal Biochem. 339.1: 182-84). Binders were expressed and purified in Fab_FH format.
Binder,binding result,Kd [nM]
B9,no binding,–
B1,–,0.048
B2,–,0.22
B4,–,0.096
B5,–,0.085
B10,no binding,–
B11,no binding,–
B12,no binding,–
B8,–,0.17

# Target: T1, mouse IL17C
# Test: mIL17C - mIL-17RE inhibition assay (MSD): human/mouse IgG2a pre-incubated with biotinylated mouse IL17C, binding to coated mouse IL17RE/Fc detected by Streptavidin-ECL
# Protocol: To determine inhibitory activity of purified anti-IL17C human-mouse chimeric IgG2a in a mIL-17 RE interaction assay, Maxisorp™ 384 well MSD plates were coated with 30 μL mouse IL17RE/Fc at 75 ng/mL in PBS at 4° C. overnight. The next day 25 μL of a serial antibody dilution (concentrations from 0.001 to 100 nM) were pre-incubated for 30 min at RT with an equal volume of biotinylated mouse IL17C at 0.125 nM. After blocking of plates for 1 h with 2.5% BSA in PBST, preformed antibody-ligand complexes were added for 1 h to coated IL17RE/Fc and receptor binding was detected via Streptavidin-ECL using MSD Sector Imager.
# To characterize the antibodies in human/mouse IgG2a format in more detail, for each candidate IC₅₀ values were determined in the IL-17 receptor E inhibition assay as described herein above in up to 4 independent experiments.
row,Binder,IC50 [nM]
1,B1,0.016
2,B2,0.028
3,B3,0.122
4,B4,0.009
5,B5,0.024
6,B6,0.16
7,B8,3.49

# Target: T3, human IL17C
# Test: ELISA, purified chimeric human/mouse IgG2a on huIL-17C
row,Binder,binding result
1,B1,no binding
2,B2,no binding
3,B3,no binding
4,B4,no binding
5,B5,no binding
6,B6,no binding
7,B7,no binding
8,B8,no binding

# Target: T1, mouse IL17C
# Test: ELISA, purified chimeric human/mouse IgG2a titrated on mouse IL17C, n=1-2
# Protocol: All purified chimeric human-mouse chimeric IgG2a antibodies were titrated on mouse IL17C for EC₅₀ determination in ELISA starting with a concentration of 100 nM. EC₅₀ values on mouse IL17C were determined in 1 to 3 independent experiments.
row,Binder,EC50 [nM]
1,B1,0.3
2,B2,0.29
3,B3,0.27
4,B4,0.4
5,B5,0.36
6,B6,0.39
7,B7,0.47
8,B8,1.14
